Among the data in article PMC5576363 are Kd values, retold here.

Residue numbers refer to the chain shown, from its start.

For the data set, the target named is T1, LbuC2c2-WT (Leptotrichia buccalis, UniProt C7NBY4 1-1159).
T1 sequence: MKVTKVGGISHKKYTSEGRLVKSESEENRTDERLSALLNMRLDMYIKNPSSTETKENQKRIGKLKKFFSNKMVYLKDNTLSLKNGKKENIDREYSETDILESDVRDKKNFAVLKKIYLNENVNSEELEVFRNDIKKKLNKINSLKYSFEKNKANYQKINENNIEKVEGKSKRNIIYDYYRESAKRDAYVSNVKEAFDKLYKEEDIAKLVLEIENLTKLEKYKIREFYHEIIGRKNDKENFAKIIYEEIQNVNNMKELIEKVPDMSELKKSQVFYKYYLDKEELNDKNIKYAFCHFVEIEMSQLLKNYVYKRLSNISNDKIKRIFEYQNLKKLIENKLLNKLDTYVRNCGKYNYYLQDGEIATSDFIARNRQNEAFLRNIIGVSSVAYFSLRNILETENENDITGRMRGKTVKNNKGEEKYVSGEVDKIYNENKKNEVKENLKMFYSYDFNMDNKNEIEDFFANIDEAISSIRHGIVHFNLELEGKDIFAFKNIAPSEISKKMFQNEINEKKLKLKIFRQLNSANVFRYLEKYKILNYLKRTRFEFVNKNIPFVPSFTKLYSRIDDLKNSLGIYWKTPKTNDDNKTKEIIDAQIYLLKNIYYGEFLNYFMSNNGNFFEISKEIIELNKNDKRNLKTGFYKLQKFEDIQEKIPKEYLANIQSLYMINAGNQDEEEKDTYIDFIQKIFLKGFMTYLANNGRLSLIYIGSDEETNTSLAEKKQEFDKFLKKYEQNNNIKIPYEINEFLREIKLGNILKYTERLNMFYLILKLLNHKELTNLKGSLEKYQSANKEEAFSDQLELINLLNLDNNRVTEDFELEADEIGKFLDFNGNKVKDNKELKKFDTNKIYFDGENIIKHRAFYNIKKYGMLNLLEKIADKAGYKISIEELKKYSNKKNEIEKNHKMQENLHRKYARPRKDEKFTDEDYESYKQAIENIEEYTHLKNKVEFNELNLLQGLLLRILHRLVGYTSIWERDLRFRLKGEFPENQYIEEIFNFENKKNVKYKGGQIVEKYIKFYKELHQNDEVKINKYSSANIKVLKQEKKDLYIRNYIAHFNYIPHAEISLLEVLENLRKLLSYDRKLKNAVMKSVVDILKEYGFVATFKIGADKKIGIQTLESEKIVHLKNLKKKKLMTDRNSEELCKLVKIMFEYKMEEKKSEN
Briefly: filter binding.

B1: mature crRNA-A_GG (crLbu_A_GG_AES432) (structured_RNA)
RNA: GGCCACCCCAAAAAUGAAGGGGACUAAAACAGGGGCAGAGAUGAUGACCCU
A word on the Kd: it is the free concentration of one partner at which half of the binding sites on the other are occupied at equilibrium, for simple one-to-one binding. Read a high Kd as lower affinity. For the molecule B1, the Kd was found to be 27.1 ± 7.5 nM.

B2: mature crRNA-A_GA (crLbu_A_mature_GA_SCK340) (structured_RNA)
RNA: B1 RNA with G2A
The molecule B2 showed a Kd of 4.65 ± 0.6 nM.
